Values joined by “and” are separate entries in the source; they are usually repeats but may differ in a detail not shown here. Equal values may be shown once.
Experiments:
[1] = tested on: nine different MRSA strains; experiment: Broth microdilution checkerboard assays, summary over the panel; assay type: cell-based, Staphylococcus aureus; details: each of the nine MRSA strains; breakpoint MIC ≤2 sensitive
Text: (§1) In some embodiments, the present lysin polypeptides reduce the minimum inhibitory concentration (MIC) of an antibiotic. Any known method to assess MIC may be used. In some embodiments, a checkerboard assay is used to determine the effect of a lysin on antibiotic concentration. The checkerboard assay is based on a modification of the CLSI method for MIC determination by broth microdilution (See Clinical and Laboratory Standards Institute (CLSI), CLSI. 2015. Methods for Dilution Antimicrobial Susceptibility Tests for Bacteria That Grow Aerobically; Approved Standard-10th Edition. Clinical and Laboratory Standards Institute, Wayne, Pa., which is herein incorporated by reference in its entirety and Ceri et al. 1999. J. Clin. Microbiol. 37: 1771-1776, which is also herein incorporated by reference in its entirety).
(§2) Checkerboards are constructed by first preparing columns of e.g., a 96-well polypropylene microtiter plate, wherein each well has the same amount of antibiotic diluted 2-fold along the horizontal axis. […] The lysin and antibiotic dilutions are then combined, so that each column has a constant amount of antibiotic and doubling dilutions of lysin, while each row has a constant amount of lysin and doubling dilutions of antibiotic. Each well thus has a unique combination of lysin and antibiotic. Bacteria are added to the drug combinations at a given concentration. […] Summation fractional inhibitory concentrations (ΣFICs) are calculated for each drug and the minimum ΣFIC value (ΣFICmin) is used to determine the effect of the lysin/antibiotic combination.
A step-wise approach was used to evaluate PlySs2 as a resensitizing agent. First, broth microdilution checkerboard assays were used to determine fractional inhibitory concentration index (FICI) values for combinations of PlySs2 with three β-lactam antibiotics [oxacillin (OXA), nafcillin (NAF), and cefazoline (CFZ)] against nine different MRSA strains. […] Representative single agent MICs are also shown, determined for each agent alone (initial) and in combinations (final). […]

MRSA strain ATCC 33591 = experiment: Broth microdilution checkerboard assay; assay type: cell-based, Staphylococcus aureus; design: unit not given here; details: for MICinitial: each agent alone (initial); for MICfinal: * = Resensitization
Text: as §1, §2
(§3) A step-wise approach was used to evaluate PlySs2 as a resensitizing agent. First, broth microdilution checkerboard assays were used to determine fractional inhibitory concentration index (FICI) values for combinations of PlySs2 with three β-lactam antibiotics [oxacillin (OXA), nafcillin (NAF), and cefazoline (CFZ)] against nine different MRSA strains. Data from the checkerboard assays were generated to determine the interaction and potency of PlySs2 with the β-lactam antibiotics in comparison to their individual activities. This comparison is represented as the FICI value, whereby values of ≤0.5 are consistent with synergy, values of >0.5-<1 are highly-additive, values of 1-≤2 are indifferent, and values >2 are antagonistic. Representative single agent MICs are also shown, determined for each agent alone (initial) and in combinations (final). Resensitization occurs in synergistic combinations in which the β-lactam antibiotic MIC values fall below established breakpoints, e.g. a MIC value of ≤2 for β-lactam-sensitive isolates, a MIC value of ≥4 for β-lactam-resistant isolates. See Clinical and Laboratory Standards Institute (CLSI), CLSI. 2019. M100 Performance Standards for Antimicrobial Susceptibility Testing; 29th Edition. Clinical and Laboratory Standards Institute, Wayne, Pa.

MRSA strain CAIRD 426 = experiment: Broth microdilution checkerboard assay; assay type: cell-based, Staphylococcus aureus; design: unit not given here; details: for MICinitial: each agent alone (initial); for MICfinal: * = Resensitization
Text: as §1, §2, §3

MRSA strain NRS 11 = experiment: Broth microdilution checkerboard assay; assay type: cell-based, Staphylococcus aureus; design: unit not given here; details: for MICinitial: each agent alone (initial); for MICfinal: * = Resensitization
Text: as §1, §2, §3

MRSA strain JMI 227 = experiment: Broth microdilution checkerboard assay; assay type: cell-based, Staphylococcus aureus; design: unit not given here; details: for MICinitial: each agent alone (initial); for MICfinal: * = Resensitization
Text: as §1, §2, §3

MRSA strain JMI 1280 = experiment: Broth microdilution checkerboard assay; assay type: cell-based, Staphylococcus aureus; design: unit not given here; details: for MICinitial: each agent alone (initial); for MICfinal: * = Resensitization
Text: as §1, §2, §3

MRSA strain ATCC 43300 = experiment: Broth microdilution checkerboard assay; assay type: cell-based, Staphylococcus aureus; design: unit not given here; details: for MICinitial: each agent alone (initial); for MICfinal: * = Resensitization
Text: as §1, §2, §3

MRSA strain HPV 107 = experiment: Broth microdilution checkerboard assay; assay type: cell-based, Staphylococcus aureus; design: unit not given here; details: for MICinitial: each agent alone (initial); for MICfinal: * = Resensitization
Text: as §1, §2, §3

MRSA strain JMI4789 = experiment: Broth microdilution checkerboard assay; assay type: cell-based, Staphylococcus aureus; design: unit not given here; details: for MICinitial: each agent alone (initial); for MICfinal: * = Resensitization
Text: as §1, §2, §3

MRSA strain MW2 = experiment: Broth microdilution checkerboard assay; assay type: cell-based, Staphylococcus aureus; design: unit not given here; details: for MICinitial: each agent alone (initial); for MICfinal: * = Resensitization
Text: as §1, §2, §3

MRSA = experiment: Standard rabbit model of MRSA infective endocarditis (IE), CFU in valvular vegetations; assay type: in vivo, Staphylococcus aureus
Protocol: An ex vivo analysis was performed on tissue samples recovered after PlySs2 treatment in a standard rabbit model of MRSA infective endocarditis (IE), as disclosed in Xiong et al., Comparative efficacy of telavancin and daptomycin in experimental endocarditis due to multi-clonotype MRSA strains, J. ANTIMIC. CHEMO. (2016); 71(1):2890-94. The standard rabbit IE model was used to confirm the impact of PlySs2 treatment on oxacillin MICs. Four days after treatment with a single-dose of PlySs2 (0.18 mg/kg to 1.4 mg/kg) in the IE model, isolates were recovered from valvular vegetations and plated on TSAB (non-selective condition, Tables 3 and 4) and TSAB supplemented with PlySs2 over a range of concentrations (selective conditions, Tables 5 and 6). MIC values of the MRSA isolates were determined for both PlySs2 and oxacillin. Tables 3 and 4 below show the MICs calculated for PlySs2 and oxacillin, respectively, for valvular vegetations subject to the non-selective conditions.

[2] = in combination PlySs2 + OXA (final)
[3] = in combination PlySs2 + CFZ (final)
[4] = in combination PlySs2 + NAF (final)

Molecule: Cc1onc(-c2ccccc2)c1C(=O)N[C@@H]1C(=O)N2[C@@H]1SC(C)(C)[C@@H]2C(=O)O [OXA, oxacillin]
- MIC in synergistic combination with PlySs2 relative to breakpoint [1]: below breakpoint values
- MICinitial (MRSA strain ATCC 33591): 256
- MICfinal (MRSA strain ATCC 33591; [2]): 1*
- MICinitial (MRSA strain CAIRD 426): 4
- MICfinal (MRSA strain CAIRD 426; [2]): 1*
- MICinitial (MRSA strain NRS 11): 256
- MICfinal (MRSA strain NRS 11; [2]): 2*
- MICinitial (MRSA strain JMI 227): 16
- MICfinal (MRSA strain JMI 227; [2]): 1*
- MICinitial (MRSA strain JMI 1280): 256
- MICfinal (MRSA strain JMI 1280; [2]): 1*
- MICinitial (MRSA strain ATCC 43300): 8
- MICfinal (MRSA strain ATCC 43300; [2]): 0.5*
- MICinitial (MRSA strain HPV 107): 8
- MICfinal (MRSA strain HPV 107; [2]): 0.5*
- MICinitial (MRSA strain JMI4789): 64
- MICfinal (MRSA strain JMI4789; [2]): 2*
- MICinitial (MRSA strain MW2): 64
- MICfinal (MRSA strain MW2; [2]): 2*

B1: PlySs2: bacteriophage lysin derived from Streptococcus suis, amino acid sequence SEQ ID NO: 1 (245 residues) (protein, listed as Streptococcus suis)
chain: MTTVNEALNNVRAQVGSGVSVGNGECYALASWYERMISPDATVGLGAGVGWVSGAIGDTISAKNIGSSYNWQANGWTVSTSGPFKAGQIVTLGATPGNPYGHVVIVEAVDGDRLTILEQNYGGKRYPVRNYYSAASYRQQVVHYITPPGTVAQSAPNLAGSRSYRETGTMTVTVDALNVRRAPNTSGEIVAVYKRGESFDYDTVIIDVNGYVWVSYIGGSGKRNYVATGATKDGKRFGNAWGTFK
- Log10 CFU/g of Vegetation (MRSA; PlySs2 0.18 mg/kg, TSAB supplemented with PlySs2, 128 (unit not given)): 4.6 ± 0.7 Log10 CFU/g
- Log10 CFU/g of Vegetation (MRSA; PlySs2 0.18 mg/kg, TSAB supplemented with PlySs2, column 16 (unit not printed)): 7.1 ± 0.1 Log10 CFU/g
- Log10 CFU/g of Vegetation (MRSA; PlySs2 0.18 mg/kg, TSAB supplemented with PlySs2, column 32 (unit not printed)): 7.1 ± 0.1 Log10 CFU/g
- Log10 CFU/g of Vegetation (MRSA; PlySs2 0.18 mg/kg, TSAB supplemented with PlySs2, column 64 (unit not given)): 6.6 ± 0.9 Log10 CFU/g
- Log10 CFU/g of Vegetation (MRSA; PlySs2 0.35 mg/kg, TSAB supplemented with PlySs2, 128 (unit not given)): 3.4 ± 1.3 Log10 CFU/g
- Log10 CFU/g of Vegetation (MRSA; PlySs2 0.35 mg/kg, TSAB supplemented with PlySs2, column 16 (unit not printed)): 6.9 ± 0.2 Log10 CFU/g
- Log10 CFU/g of Vegetation (MRSA; PlySs2 0.35 mg/kg, TSAB supplemented with PlySs2, column 32 (unit not printed)): 6.4 ± 0.5 Log10 CFU/g
- Log10 CFU/g of Vegetation (MRSA; PlySs2 0.35 mg/kg, TSAB supplemented with PlySs2, column 64 (unit not given)): 5.5 ± 0.6 Log10 CFU/g
- Log10 CFU/g of Vegetation (MRSA; PlySs2 0.7 mg/kg, TSAB supplemented with PlySs2, 128 (unit not given)): <2.1 ± 0.1 Log10 CFU/g
- Log10 CFU/g of Vegetation (MRSA; PlySs2 0.7 mg/kg, TSAB supplemented with PlySs2, column 16 (unit not printed)): 6.7 ± 0.1 Log10 CFU/g
- Log10 CFU/g of Vegetation (MRSA; PlySs2 0.7 mg/kg, TSAB supplemented with PlySs2, column 32 (unit not printed)): 5.7 ± 1.1 Log10 CFU/g
- Log10 CFU/g of Vegetation (MRSA; PlySs2 0.7 mg/kg, TSAB supplemented with PlySs2, column 64 (unit not given)): 3.8 ± 1.8 Log10 CFU/g
- Log10 CFU/g of Vegetation (MRSA; PlySs2 1.4 mg/kg, TSAB supplemented with PlySs2, 128 (unit not given)): 2.8 ± 1.2 Log10 CFU/g
- Log10 CFU/g of Vegetation (MRSA; PlySs2 1.4 mg/kg, TSAB supplemented with PlySs2, column 16 (unit not printed)): 7.1 ± 0.06 Log10 CFU/g
- Log10 CFU/g of Vegetation (MRSA; PlySs2 1.4 mg/kg, TSAB supplemented with PlySs2, column 32 (unit not printed)): 5.9 ± 0.03 Log10 CFU/g
- Log10 CFU/g of Vegetation (MRSA; PlySs2 1.4 mg/kg, TSAB supplemented with PlySs2, column 64 (unit not given)): 4.2 ± 1.7 Log10 CFU/g
- Log10 CFU/g of Vegetation (MRSA; single dose PlySs2 0.18 mg/kg, four days after treatment, TSAB non-selective (0)): 8.65 ± 0.58 Log10 CFU/g
- Log10 CFU/g of Vegetation (MRSA; single dose PlySs2 0.35 mg/kg, four days after treatment, TSAB non-selective (0)): 8.17 ± 0.58 Log10 CFU/g
- Log10 CFU/g of Vegetation (MRSA; single dose PlySs2 0.7 mg/kg, four days after treatment, TSAB non-selective (0)): 7.93 ± 0.12 Log10 CFU/g
- Log10 CFU/g of Vegetation (MRSA; single dose PlySs2 1.4 mg/kg, four days after treatment, TSAB non-selective (0)): 8.24 ± 0.02 Log10 CFU/g
- MICinitial (MRSA strain ATCC 33591): 1
- MICfinal (MRSA strain ATCC 33591; [3]): 0.25
- MICfinal (MRSA strain ATCC 33591; [4]): 1.125
- MICfinal (MRSA strain ATCC 33591; [2]): 0.25
- MICinitial (MRSA strain CAIRD 426): 1
- MICfinal (MRSA strain CAIRD 426; [3]): 0.25
- MICfinal (MRSA strain CAIRD 426; [4]): 0.25
- MICfinal (MRSA strain CAIRD 426; [2]): 0.25
- MICinitial (MRSA strain NRS 11): 1
- MICfinal (MRSA strain NRS 11; [3]): 0.25
- MICfinal (MRSA strain NRS 11; [4]): 0.25
- MICfinal (MRSA strain NRS 11; [2]): 0.25
- MICinitial (MRSA strain JMI 227): 1
- MICfinal (MRSA strain JMI 227; [3]): 0.25
- MICfinal (MRSA strain JMI 227; [4]): 0.25
- MICfinal (MRSA strain JMI 227; [2]): 0.25
- MICinitial (MRSA strain JMI 1280): 1
- MICfinal (MRSA strain JMI 1280; [3]): 0.25
- MICfinal (MRSA strain JMI 1280; [4]): 0.25
- MICfinal (MRSA strain JMI 1280; [2]): 0.25
- MICinitial (MRSA strain ATCC 43300): 1
- MICfinal (MRSA strain ATCC 43300; [3]): 0.125
- MICfinal (MRSA strain ATCC 43300; [4]): 0.125
- MICfinal (MRSA strain ATCC 43300; [2]): 0.25
- MICinitial (MRSA strain HPV 107): 1
- MICfinal (MRSA strain HPV 107; [3]): 0.125
- MICfinal (MRSA strain HPV 107; [4]): 0.25
- MICfinal (MRSA strain HPV 107; [2]): 0.25
- MICinitial (MRSA strain JMI4789): 1
- MICfinal (MRSA strain JMI4789; [3]): 0.125
- MICfinal (MRSA strain JMI4789; [4]): 0.125
- MICfinal (MRSA strain JMI4789; [2]): 0.25
- MICinitial (MRSA strain MW2): 1 and 2
- MICfinal (MRSA strain MW2; [3]): 0.125
- MICfinal (MRSA strain MW2; [4]): 0.5
- MICfinal (MRSA strain MW2; [2]): 0.25
